# Patent US20160321394A1 (ACADEMIA SINICA, published 2016)
# Where no end group is shown, it is not given here.
# Target: full-length recombinant human GRP78 (glucose-regulated protein 78), N-His tagged (human) (UniProt P11021)
# Assay: Biacore X SPR, 50 µM peptide over immobilised N-His GRP78; RU/MW normalised to L-peptide
# Chain of full-length recombinant human GRP78 (glucose-regulated protein 78), N-His tagged (human) (P11021 19-654 limits assumed): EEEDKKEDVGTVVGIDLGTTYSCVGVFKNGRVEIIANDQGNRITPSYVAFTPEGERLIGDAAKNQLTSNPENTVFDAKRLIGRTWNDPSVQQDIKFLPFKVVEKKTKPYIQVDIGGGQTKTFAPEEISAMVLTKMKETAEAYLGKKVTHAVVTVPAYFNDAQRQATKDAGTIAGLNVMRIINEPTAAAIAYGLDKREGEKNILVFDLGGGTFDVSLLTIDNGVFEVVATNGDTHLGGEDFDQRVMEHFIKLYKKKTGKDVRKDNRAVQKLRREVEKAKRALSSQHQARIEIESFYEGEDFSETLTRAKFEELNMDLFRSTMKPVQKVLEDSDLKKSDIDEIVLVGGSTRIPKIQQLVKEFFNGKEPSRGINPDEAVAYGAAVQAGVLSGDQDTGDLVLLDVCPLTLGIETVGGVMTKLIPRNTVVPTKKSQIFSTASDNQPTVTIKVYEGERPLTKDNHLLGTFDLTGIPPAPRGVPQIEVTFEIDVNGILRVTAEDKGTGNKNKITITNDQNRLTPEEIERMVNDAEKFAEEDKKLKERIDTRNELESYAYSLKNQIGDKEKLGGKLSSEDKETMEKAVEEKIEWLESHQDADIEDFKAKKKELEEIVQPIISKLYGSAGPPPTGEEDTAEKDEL
row,Binding index,Binder
1,3,RLLDTNRPYLWY [PB-2]

# Target: T1, full-length recombinant human GRP78 (glucose-regulated protein 78), N-His tagged (human, UniProt P11021 19-654, limits assumed)
# T1 construct: Immobilised on a Biacore NTA chip by Ni chelation plus amine coupling; also called His-tagged GRP78; human glucose-regulated protein 78; not shown: N-terminal His tag
# Assay: as above
# Protocol: The chip NTA and HBS-P buffer were obtained from GE Healthcare. Sensor chip NTA was prepared by combining Ni-ion chelation and covalent immobilization of N-His tagged GRP78 via amine-coupling with nitrilotriacetic acid on chip NTA (FIG. 6). To immobilize GRP78 protein on sensor chip for peptide-binding assay using Biacore, the methods based on Ni-ion chelation and amine coupling reaction were combined. Sensor chip NTA was prepared by chelation followed by covalent immobilization of N-His-tagged GRP78 via amine-coupling at the nitrilotriacetic acid group on chip NTA. The sensor chip NTA, HBS-P buffer and amine coupling kits were all obtained from GE Healthcare. First, the activation of chip surface using EDC and NHS reagents for amine coupling were according to the standard procedure from manufacturer's instruction. Additionally, one-minute pulse of NiCl₂ solution (500 μM) was used to attract His-tagged GRP78 to the surface of sensor chip and formed covalent bond subsequently in the condition of HBS-P buffer (pH 7.4). The resulting differences of RU were about 5,000˜6,000 RU. After de-activation by ethanolamine and washed with EDTA (3 mM), the prepared sensor chip was then applied to Biacore X for binding assay. The HBS-P buffer containing 1 mM Gly was used as running buffer for binding assay. Solution of 20 mM sodium hydroxide dissolved in running buffer was used to regenerate the chip surface by one-minute pulse.
# The sensor chip thus prepared was applied to Biacore X for determining the binding between the peptides and GRP78. The HBS-P buffer containing 1 mM Gly was used as a running buffer. A solution of 20 mM sodium hydroxide dissolved in the running buffer was used to regenerate chip surface by 1-minute pulses.
# T1 sequence (P11021 19-654 limits assumed): as above
row,Binder,Binding index
1,"RLLDTNRPLLPY (synthetic 12-mer, lead peptide; also called positive control) [L-peptide]",1
2,RLLDTNRPWLPY [PA-1],0.35
3,RLLDTNRPLLLY [P-14],0.21
4,RLLDTNRPLLGY [P-11],0.77
5,RLLDTNRPNLPY [PA-4],0.31

# The remaining lines, values ahead:
row,Binding index,Binder
1,1.15,RLLDTNRPLLPY-NH2 [PB-3]
2,1.6,RLLDTNRPFLWY [PB-1]
3,0.3,RLLDTNRPQLPY [PA-5]
4,0.47,RLLDTNRPHLPY [PA-6]
